Test [1] has as its target von Willebrand factor (human (endogenous in whole blood)) (UniProt P04275).
The target is the same in test [2]. This is another data set of the same source.

In test [1], “platelet GPIbα (from UniProt P07359 17-652) (receptor)” showed a share of slow-rolling platelets at constant shear of 36% and a share of slow-rolling platelets at shear rate gradient of 52.9%. In test [2], this substance registered a platelet adhesion at the stenosis apex, control (platelets/mm^2) of 3930; a platelet adhesion in the stenosis outlet, control (platelets/mm^2) of 5040; a platelet rolling velocity at the stenosis apex, control of 4.41 μm s^-1; a platelet rolling velocity at the stenosis apex, with scFv A1 of 4.6 μm s^-1.
